Article PMC10897489

Tests used:
FXR1 215-360 (KH1-KH2) = FXR1 215-360 (KH1-KH2) (UniProt P51114 215-360); assay: ITC; ITC: 50 mM sodium phosphate pH 7.5, 150 mM NaCl, 0.5 mM TCEP, 25 °C; conditions: protein: recombinant; tags: His or GST (not specified which)
[1] = target: SARS-CoV-2 N protein (NCAP_SARS2) (SARS-CoV-2, UniProt P0DTC9 1-419); assay: ITC; conditions: protein: recombinant; chain copies: 2

B1: NF1 RNA (ssRNA)
RNA: GGAUCAUUUUGUUGGACUCAAUUUCAACUCUAACUUUAACUUUGCAUUGGUUGGACACCU
binding result (FXR1 215-360 (KH1-KH2)): no binding
Kd [1]: 0.38 ± 0.04 µM
